According to patent US20210115143A1:

How the values were obtained:
[1] = target: PD-L1-Fc, human IgG Fc fusion protein, human recombinant, HEK293-derived, Phe19-Thr239 (R&D systems Cat #156-B7-100) (human) (UniProt Q9NZQ7); test: SPR (Reichert), PD-L1-Fc immobilized, antibody in solution, 1:1 model, 25 C
[2] = target: PD-L1-His tagged, human recombinant, HEK293-derived, Phe19-Thr239 (R&D systems Cat #9049-B7-100) (human) (UniProt Q9NZQ7); test: SPR (Reichert), antibody captured by immobilized anti-human IgG, PD-L1-His in solution, 1:1 model, 25 C
[3] = target: PD-L1-His tagged, human recombinant, HEK293-derived, Phe19-Thr239 (R&D systems Cat #9049-B7-100) (human) (UniProt Q9NZQ7); test: SPR (Reichert), antibody immobilized directly, PD-L1-His in solution, 1:1 model, 25 C
C1q (Sigma, Cat #C1740) = C1q (Sigma, Cat #C1740) (UniProt P02745); test: ELISA: antibody coated at 0-25 µg/mL, C1q at 2 µg/mL, anti-C1q-HRP
[4] = target: CD32a receptor (Fc gamma receptor) (UniProt P12318); test: method not stated
[5] = target: CD16a receptor (Fc gamma receptor) (UniProt P08637); test: method not stated
[6] = target: PD-L1-His tagged, human recombinant, HEK293-derived, Phe19-Thr239 (R&D systems Cat #9049-B7-100) (human) (UniProt Q9NZQ7); test: SPR, captured antibody, PD-L1-His in solution
[7] = target: human PD-L1 on primary human cells in the dendritic cell / CD4+ T cell mixed lymphocyte reaction (human) (UniProt Q9NZQ7); test: cell-based or functional assay
human PD-L1 on primary human cells in the dendritic cell / CD4+ T cell mixed lymphocyte reaction (human), sequence (Q9NZQ7 19-290): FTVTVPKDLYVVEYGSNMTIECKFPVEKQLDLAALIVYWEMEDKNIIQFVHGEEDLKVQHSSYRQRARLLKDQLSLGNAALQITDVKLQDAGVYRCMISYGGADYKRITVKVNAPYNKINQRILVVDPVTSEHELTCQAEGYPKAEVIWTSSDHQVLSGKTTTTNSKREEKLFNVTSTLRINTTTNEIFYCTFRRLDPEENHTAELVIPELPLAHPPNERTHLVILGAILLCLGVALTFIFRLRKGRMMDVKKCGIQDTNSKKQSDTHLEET

PD-L1-His tagged, human recombinant, HEK293-derived, Phe19-Thr239 (R&D systems Cat #9049-B7-100) (human), sequence (Q9NZQ7 19-239 limits assumed): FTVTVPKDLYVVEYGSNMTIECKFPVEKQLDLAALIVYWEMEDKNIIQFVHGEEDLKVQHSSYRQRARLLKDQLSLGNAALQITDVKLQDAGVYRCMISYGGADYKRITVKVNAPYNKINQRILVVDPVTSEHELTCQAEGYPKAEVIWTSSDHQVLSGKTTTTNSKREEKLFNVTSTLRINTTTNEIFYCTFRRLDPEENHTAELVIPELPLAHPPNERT
CD32a receptor (Fc gamma receptor), sequence (P12318 36-218): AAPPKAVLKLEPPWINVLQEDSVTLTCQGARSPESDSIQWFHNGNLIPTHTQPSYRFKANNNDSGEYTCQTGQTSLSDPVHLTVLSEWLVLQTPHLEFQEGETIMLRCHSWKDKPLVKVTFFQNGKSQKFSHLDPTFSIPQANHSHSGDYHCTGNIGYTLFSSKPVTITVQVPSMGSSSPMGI
CD16a receptor (Fc gamma receptor), sequence (P08637 17-208 limits assumed): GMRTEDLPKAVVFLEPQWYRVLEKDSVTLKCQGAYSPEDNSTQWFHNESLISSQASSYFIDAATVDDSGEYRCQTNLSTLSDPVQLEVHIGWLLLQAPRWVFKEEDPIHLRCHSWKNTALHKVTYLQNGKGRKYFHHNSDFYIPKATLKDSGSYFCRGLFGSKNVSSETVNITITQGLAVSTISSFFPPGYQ
PD-L1-Fc, human IgG Fc fusion protein, human recombinant, HEK293-derived, Phe19-Thr239 (R&D systems Cat #156-B7-100) (human), sequence (Q9NZQ7 19-239 limits assumed): as the sequence (Q9NZQ7 19-239 limits assumed) above
C1q (Sigma, Cat #C1740), sequence (P02745 23-245 limits assumed, chain 1 of 3): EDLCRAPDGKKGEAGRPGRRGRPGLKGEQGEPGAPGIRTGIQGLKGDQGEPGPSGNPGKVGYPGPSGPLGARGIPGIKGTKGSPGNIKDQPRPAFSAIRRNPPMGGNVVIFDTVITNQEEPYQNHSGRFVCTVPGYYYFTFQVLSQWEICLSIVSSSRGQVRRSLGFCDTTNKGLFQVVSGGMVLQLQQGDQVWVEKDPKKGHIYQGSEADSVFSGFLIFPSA
C1q (Sigma, Cat #C1740), sequence (P02746 28-253 limits assumed, chain 2 of 3, further chain): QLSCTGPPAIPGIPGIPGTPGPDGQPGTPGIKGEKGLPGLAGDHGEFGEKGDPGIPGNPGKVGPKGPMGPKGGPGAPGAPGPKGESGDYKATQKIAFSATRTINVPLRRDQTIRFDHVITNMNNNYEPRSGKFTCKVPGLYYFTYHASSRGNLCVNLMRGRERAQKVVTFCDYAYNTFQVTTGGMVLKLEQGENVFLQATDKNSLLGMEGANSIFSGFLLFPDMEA
C1q (Sigma, Cat #C1740), sequence (P02747 29-245 limits assumed, chain 3 of 3, further chain): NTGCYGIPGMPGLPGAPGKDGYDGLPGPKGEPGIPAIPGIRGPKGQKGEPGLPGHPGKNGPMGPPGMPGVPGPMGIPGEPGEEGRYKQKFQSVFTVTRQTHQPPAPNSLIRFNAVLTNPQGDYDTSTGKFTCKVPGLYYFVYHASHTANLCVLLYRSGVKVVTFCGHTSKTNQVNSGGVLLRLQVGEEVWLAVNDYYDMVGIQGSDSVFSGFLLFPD

Kd [1]: 0.26 nM | Kd [2]: 0.67 nM | Kd [3]: 0.62 nM | EC50 (C1q (Sigma, Cat #C1740)): 14.9 µg/mL | Kd [4]: 41000 nM | Kd [5]: 16000 nM | binding affinity against that of B60-55-1 (log) [6]: 2 log | EC50 of IL-2 secretion in mixed lymphocyte reaction (MLR) [7]: 21.5 nM
Substance: atezolizumab (Tecentriq), Genentech Inc, Lot 3109904 (antibody)
